Data published in the DeepSol protein solubility set.

Test: soluble on expression in E. coli; label from the status in PepcDB or PDB records

| Sequence | soluble on expression in E. coli |
| --- | --- |
| MGSDKIHHHHHHMDRWTQLQLFVLTADLGSLSKAAEQLDMSNAAASRTLSSLEERLGARLIERTTRRMWLTDAGREYHRRCTAVIAELAEADAIASEEVVNPRGVLRVTSSVSFAMMHLAPALPEFLKRYPNLTVQITATNQYQNFIESGIDIAIRTKEHEGDSCITIRRLAETRRVLAASPAYLATHGRPQKPEDLAQHNMLVYNLAVDPYLLHLRRGKEERNIAIASALDSNEGQVIVAAGRAGLGIVVQPLYIIHDDIVSGRLVPVLEDWQLPRLTINLAYQSRRYQPAKIRVFTDFLIERVKNLNLEERWMTFAA | not soluble |
| MHMVTYPCLTSRRFQLALIHRRVVDKRTSMHSRTASESTGARIHRPWCARHQVRPAWRCQYDKLHRVPFRSPELRLDSGPGYTTGSYRYMAGDPLEHHHHHH | not soluble |
| MSLKHQETTSQQYNFSIIKHGDISTPQGFTAGGMHIGLRANKKDFGWIYSSSLASSAAVYTLNQFKAAPLIVTEDTLQKSKGKLQALVVNSANANSCTGQQGIDDARQTQTWVAQQLQIPSEHVAVASTGVIGEYLPMDKIKTGTEHIKDTNFATPGAFNEAILTTDTCTKHIAVSLKIDGKTVTIGGSAKGSGMIHPNMATMLAFITTDASIESNTLHQLLKSSTDHTFNMITVDGDTSTNDMVLVMANHQVEHQILSQDHPQWETFVDAFNFVCTFLAKAIARDGEGATKLISVNVSGAKSISDARKIGKTIVSSNLVKSAIFGEDANFGRIITAIGYSGCEIDPKCTYVQLNQIPVVDKGMAVLFDEQAMSNTLTHEHVTIDVQLGLGNAAATAYGCDLSYDYVRINASYRTEGHHHHHH | soluble |
| MAHHHHHHMADLRDELDATALFGSGYVCIVGPPSSGKTTLILEYLVARERQAVHSGDGDAAAFCMEYVSARSAPHELLRHLTYRLLPHARRRRLSYECTPLEFSASLVEWVEAHPGQSELHLVVDDADALEYSAEEMNLWLSHYLRAPAEQRCTVILWLISELPLRLSNCFRYHFIARPEANSIVQWLHHQFEEERRLLAGLESEEDDSEHTVNGAPMTTLSADEVNRVVLDAFTYYATHQPMCSSVVSRDVRLLVQRVYQILPPLLLEVAATTSAVPGESGEAAVSASTTADAVKKLNARHFAAAWSQYRSDGGGGTSSAMAVSGAAASAQNTLVMALKRLGYSAVLLAFAAFYGGAVPKRQQHQVFGRIGSGERQPPLHEAKGQSHKAAVLTASAHVVTLRRLGFLYDAMLRMCTPHIDPLEFTTADVALQYVQGFVAWGLLTPVVSQRHRSYHCWIPVSTAPAVGA | not soluble |
| MPRHETDCRYFANGYCSKGNTCTFTHDVATRNENICHFNLVGKCSYGRACRFLHTRPRNDELPSCSTPQTSQNQQNLQNSGQRVRPKQLPELKFNAQAAEFVPRWKMPQRGPVTSYAGAAASADHGESSSSFQSSHEQAQLMMCPYHQKSGDCNRQDMDCPFAHGNYCDMCQQWSLHPYNAELRKKHENECVANHTTEMERAFLLQKTEQKTCGICMENIFEKNLRFGILNGCQHCFCLDCIRQWRSKDQENVELATKTVRSCPECRQHSDYVIPSLFWVESGQEKDLLIEMYKENTKRKICKYYSNERSRGACPFGNKCFYKHQLPDGSIDPGEAPSSRRRPRLVDFLFDDNSDSDEETFRRFQEEHEEEQEELLRFVAETLPEADEESELFRQITEVLRHYQISGHRRGFQ | not soluble |
| MEIRPTRIELIRTRRRIKLARKGLDLLKMKRSALIYEFLQISRTIRGMRENLRREVEDALNTIRTAEILEGQVALERIANMSSDSTINVDSRNVMGVVIPTLNLTYNLSILSDVYRTISVPVAINDAIDRFQRLFLNLIQILEKENALRNLLIEIDKTKRRSNAIENILIPRLEYQAKMIKMMLDERERDTFTTLKTIKKKIEAGKDEE | not soluble |
| CTCSPSHPQDAFCNSDIVIRAKVVGKKLVKEGPFGTLVYTIKQMKMYRGFTKMPHVQYIHTEASESLCGLKLEVNKYQYLLTGRVYDGKMYTGLCNFVERWDQLTLSQRKGLNYRYHLGCN | soluble |
| MSSIRYRRPPIIERRYERTPSYSTIPRDIHVSFYHNNYHRSKILYLNKFNAMEKLIEAAHELYPSNGVYRLFSDSTIGAQNELNDSVQVMECVQNPDHILPHLHIRLEDYRPRSISRNYHEVNVPIIRTPSQHSIHQSVRFNDNKRHHHHHHHDSIRNFVHHDTPCRNCFRIIVGSRYHCLQCPDYDICGDCEKDLVHYEHALLRIVTPRVTSIPDYVTVNAPSYIFPEHRYDIKREHYHWF | not soluble |
| MLIYISLIMKMERLSMVILELYQNDYSKDLVAFDSIEDGKAFVAQIPGYTLETEDGFEVEYFNPKNIPDYMEIIFNGNIVPLSKFMFDPEENVNIIWKEISNLSLKNDRVIEGYSKIDAYVVNNHEVKAYVETRETNYRKAKDFLESRGYEIDRSFFGSEDGEAILYRKKGIEVWHFLCHLDPMFVEIEDVEGYVKEEVGEIQ | not soluble |
| DFEIMAPVGSRESLAAAIQAGADSIYFGIESLNMRARSASTFTVNDLREIAQICDKHGIKSYLTINTIIYDEDIALMRTIVDAAKEAGISAVIAADVAVMAYCCEVGQEVHLSTQLNISNAGALKFYARFADVVVLARELNLKQVRVIYDTIQKEQIKGPNGELVRIEMFCHGALCMAVSGKCYLSLHEMNASANRGACMQICRRAYDVKDKESDIELEVDNKYIMSPKDLKTIHFMDEMIEAGVRVFKIEGRARGPEYVRTVVECYKEAICSYLEGTFTEEKKQAWDERLKTVFNRGFWNGYYLGQRLGEWSKNYGSEATERKVYVGKGIKYFSNIGVAEFLVEAAEMKVGDKLLITGPTTGAVFLTLDEARVDLKPVDVVRKGQHVSFKVPDKVRPSDKLYKLVSPEDLK | not soluble |
| MQNDVFFDLTQHGFSEDEASQLMVYGQELELPTRHILSHQGEFSSHIYFILEGLCHASYLTEKGKEFSKEFYWEKDWVIGFESVIKGQPSPYLLETLTACHLFCLPIEALHQWRAEKHSIYLKLLETQLMNKENKERFMLLYSPEERYQLFCHHYPDLEQRITDSQIAAYLGITAISLSRIKARLAKDNK | not soluble |
| MEVFGKSPMVVTSANVIYLSAILGRDCDGHKCDWKCENENVCGNMYRCKLTGLTHVCDKNCNQRILYDNHSSLCRASGRIFPLSSVEEQAVKGVRRKLDAAESHPSESCSFKRRRRDAQFHASPFERSFTAVSPICSPAGDGMELV | not soluble |
| MTEVILFFFATPKRATFSLELTSMKKLATLLAGSACALSLLSGTAAAEDKELVFMNWGPYINSGILEQFTKETGIKVIYSTYESNETLYAKLKTHNQGYDLVVPSTYFVAKMRDEGMLQKIDKSKLSNFKNLDSNYLDKPYDPNNDYSIPHVVAITGLAVNTDMYDPNDFQSWGDLWKPELKGQLMLMDDTREVFHIALRKLGYSGNSTDDKQIDEAYAELQKLMPNVLVFNSDNPAAPYLSGEVGLGMLWNGSAAAAQKEGLPIKLVFPKEGGIGWVDNFAISSGAKNVDAAHKMIDFLLRPEIAEQISRDTGYLTGVKASNDKFQDVAPLFPSQEDLDRVEWQSAVGDKTVKYEEYFMKLKAGQ | not soluble |
| MSKVALFSHVSPDGDCIGSMLGIGLALEALGKEVAMFNPDPIPRNLSFLPGVDKITQSMPDPLPETLLFVDCADLQRVQLQREDLPADAVILNLDHHISNQNFGRINWVDSQAAASGELAYALVRRLNVELTQEIAANFYTALLTDTGSFKYANTTAKTHQIAGELMELEHHHHHH | not soluble |
| MSAAPLVRAVRWYQRVLSPRKPAPTCRFSPTCSEYAAQALDRHGALKGGWLALWRVLRCNPLVPGGFDPV | soluble |
| GPGSMANDYLFTSESVSEGHPDKVADQISDAILDAILAQDKYSRVAAETLCNTGLVVLAGEITTTANIDYIQIARDTIKRIGYDNTDYGIDYRGCAVLVAYDKQSPDIAQGVDRAHDNNLDQGAGDQGLMFGYACDETPELMPLPIHLSHRLVERQANLRRDGRLPWLRPDAKSQVTVRYVDGKPHSIDTVVLSTQHAPEIDLPALREAVIEEVIKPTLPADLIKGDIKFLVNPTGRFVIGGPQGDCGLTGRKIIVDTYGGAAPHGGGAFSGKDPSKVDRSAAYAGRYVAKNIVAAGLASRALIQVSYAIGVAEPTSVMVNTFGTGRVSDETITKLVREHFDLRPKGIIQMLDLLRPIYEKTAAYGHFGREEPEFSWEAADKALALAEAAGVEPAVQVA | soluble |
